This is an account of results in patent US20140086936A1.

In test [1] the target is T1, Recombinant purified human matriptase (amino acids 596-855) (human), Q9Y5Y6.
T1 chain: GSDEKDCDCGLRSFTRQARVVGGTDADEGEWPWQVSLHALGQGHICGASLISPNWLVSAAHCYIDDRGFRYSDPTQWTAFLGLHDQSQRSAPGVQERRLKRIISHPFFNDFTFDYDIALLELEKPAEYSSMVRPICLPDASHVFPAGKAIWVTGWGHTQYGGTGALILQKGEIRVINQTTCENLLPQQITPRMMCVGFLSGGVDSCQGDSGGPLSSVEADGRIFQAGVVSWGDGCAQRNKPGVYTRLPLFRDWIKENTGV
Nature of the test: ratio of Ki values, enzyme inhibition.

Test [2] has as its target T1, Recombinant purified human matriptase …. Nature of the test: enzyme inhibition, fluorogenic substrate Boc-Gln-Ala-Arg-AMC, Morrison tight-binding fit.
For test [3] the target is unchanged. Nature of the test: enzyme inhibition, 1 nM matriptase, 1 µM inhibitor, Boc-Gln-Ala-Arg-AMC 50 µM.
The target in the next test is thrombin. Nature of the test: enzyme inhibition, selectivity profile, mixed model fit.
The target of a further test is hepsin (human), P05981. Nature of the test: enzyme inhibition, 1 nM enzyme, Boc-Gln-Ala-Arg-AMC substrate.
Test [4] has as its target T1, Recombinant purified human matriptase …. The description is as above.
In another test the target is T2, TMPRSS11D, O60235.
T2 chain: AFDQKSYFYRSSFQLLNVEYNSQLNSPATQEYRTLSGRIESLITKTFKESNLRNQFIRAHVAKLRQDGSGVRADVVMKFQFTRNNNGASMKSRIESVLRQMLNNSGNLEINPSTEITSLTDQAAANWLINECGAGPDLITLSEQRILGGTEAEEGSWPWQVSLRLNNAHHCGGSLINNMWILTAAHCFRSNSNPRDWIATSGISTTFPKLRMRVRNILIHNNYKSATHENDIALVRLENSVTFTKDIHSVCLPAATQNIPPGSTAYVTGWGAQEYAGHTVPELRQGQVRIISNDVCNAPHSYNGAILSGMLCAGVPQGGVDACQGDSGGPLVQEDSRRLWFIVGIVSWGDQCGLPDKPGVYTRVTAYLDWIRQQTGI
Nature of the test: enzyme inhibition, selectivity profile, Morrison tight-binding fit.

Test [5] addresses Bovine trypsin (bovine), P00760. Described as above.
The target in test [6] is T3, matriptase-2 (human), Q8IU80.
T3 chain: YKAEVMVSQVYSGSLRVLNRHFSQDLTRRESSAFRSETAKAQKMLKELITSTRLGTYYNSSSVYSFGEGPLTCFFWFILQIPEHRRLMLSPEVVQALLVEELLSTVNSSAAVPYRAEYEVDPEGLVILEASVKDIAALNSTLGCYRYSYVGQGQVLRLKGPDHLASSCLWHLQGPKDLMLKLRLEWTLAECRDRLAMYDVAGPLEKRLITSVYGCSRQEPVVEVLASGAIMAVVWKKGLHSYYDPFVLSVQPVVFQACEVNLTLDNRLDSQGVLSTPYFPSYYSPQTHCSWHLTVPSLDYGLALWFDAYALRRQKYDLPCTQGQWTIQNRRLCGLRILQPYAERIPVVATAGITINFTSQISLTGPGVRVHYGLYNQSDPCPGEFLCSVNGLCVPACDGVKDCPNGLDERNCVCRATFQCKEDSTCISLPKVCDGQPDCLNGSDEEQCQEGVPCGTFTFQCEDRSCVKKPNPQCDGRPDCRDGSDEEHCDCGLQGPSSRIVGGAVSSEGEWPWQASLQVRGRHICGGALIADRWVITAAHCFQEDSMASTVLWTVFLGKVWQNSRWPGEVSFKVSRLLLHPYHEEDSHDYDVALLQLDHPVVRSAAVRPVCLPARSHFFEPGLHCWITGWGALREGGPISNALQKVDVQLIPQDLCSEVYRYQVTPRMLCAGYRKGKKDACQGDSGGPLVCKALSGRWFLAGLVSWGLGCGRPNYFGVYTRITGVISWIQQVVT
The description is as above.

Test [7] has as its target T1, Recombinant purified human matriptase …. Nature of the test: enzyme inhibition, fluorogenic substrate Boc-Gln-Ala-Arg-AMC, mixed model fit.

A word on the Ki: it is a dissociation constant, usually derived from enzyme kinetics or from competition with a known ligand. The term IC50 denotes the point on the concentration scale where inhibition reaches its midpoint.

Chain of hepsin (human), P05981 (P05981 45-417 limits assumed): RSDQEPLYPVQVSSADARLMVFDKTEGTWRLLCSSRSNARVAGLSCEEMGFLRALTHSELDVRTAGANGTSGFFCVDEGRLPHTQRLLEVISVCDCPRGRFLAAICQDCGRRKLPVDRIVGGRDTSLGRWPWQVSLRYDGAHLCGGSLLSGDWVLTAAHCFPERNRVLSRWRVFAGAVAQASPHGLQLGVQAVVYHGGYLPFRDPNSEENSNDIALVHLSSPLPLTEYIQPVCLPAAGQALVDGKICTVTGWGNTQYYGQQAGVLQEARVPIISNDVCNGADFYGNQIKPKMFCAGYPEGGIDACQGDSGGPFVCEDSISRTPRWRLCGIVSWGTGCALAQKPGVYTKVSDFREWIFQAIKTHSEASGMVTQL
Chain of Bovine trypsin (bovine), P00760 (P00760 24-246): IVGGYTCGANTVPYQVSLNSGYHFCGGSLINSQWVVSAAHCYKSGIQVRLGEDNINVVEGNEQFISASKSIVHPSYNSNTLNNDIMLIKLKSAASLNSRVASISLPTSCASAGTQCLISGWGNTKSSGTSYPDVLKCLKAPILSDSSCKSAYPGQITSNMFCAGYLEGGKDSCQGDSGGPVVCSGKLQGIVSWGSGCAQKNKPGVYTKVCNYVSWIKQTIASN

B1: RQAK-ketobenzothiazole (peptide)
peptide: RQAK
modifications: not checked
Take B1: in [1], the change of Ki relative to compound 1 (orders of magnitude) came to 3. Further, in test [2], the inhibition constant (Ki) is 9.5 nM. Also, the percent inhibition of matriptase activity at 1 µM in test [3] turned out to be 25%.

B2: RQAR-ketobenzothiazole (peptide)
peptide: RQAR
modifications: not checked
Turning to B2, the Ki is 637 nM with thrombin; 8.4 nM with TMPRSS11D, O60235; 0.97 nM in test [5]; 3.3 nM in test [6]. Also, the half-maximal inhibitory concentration (IC50) with hepsin (human), P05981 was 540 nM; in test [4], 29 nM.

B3: R-Q-A-(D)R ketobenzothiazole (compound 7) (peptide)
peptide: RQAR
modifications: not checked
With B3, the inhibition constant Ki in [2] came to 4.6 nM.

B4: reduced form of RQAR-ketobenzothiazole (peptide)
peptide: RQAR
modifications: not checked
On to B4, for which the Ki in test [7] turned out to be 6120 nM.
